In article PMC10397247:
Values belong to the binder of their own block, whether it stands above or below them.

What was measured:
Assay in all cases: two-hybrid library CCNG1;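 note: natural log of median RNA to DNA barcode read ratio; higher means stronger binding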
4H1393-bA = target: T1, 4H1393-bA
T1 chain: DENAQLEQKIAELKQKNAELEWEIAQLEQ

4H1449-bA = target: T2, 4H1449-bA
T2 chain: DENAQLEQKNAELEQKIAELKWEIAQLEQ

4H1629-bA = target: T3, 4H1629-bA
T3 chain: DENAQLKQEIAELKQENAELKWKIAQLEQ

4H1710-bA = target: T4, 4H1710-bA
T4 chain: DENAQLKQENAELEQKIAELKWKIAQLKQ

4H1804-bA = target: T5, 4H1804-bA
T5 chain: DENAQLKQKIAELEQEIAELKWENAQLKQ

4H1985-bA = target: T6, 4H1985-bA
T6 chain: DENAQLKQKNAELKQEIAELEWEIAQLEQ

4H3129-bA = target: T7, 4H3129-bA
T7 chain: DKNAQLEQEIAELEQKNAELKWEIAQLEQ

4H3172-bA = target: T8, 4H3172-bA
T8 chain: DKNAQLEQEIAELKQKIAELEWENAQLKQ

4H3297-bH = target: T9, 4H3297-bH
T9 chain: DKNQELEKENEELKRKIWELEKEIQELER

4H3414-bA = target: T10, 4H3414-bA
T10 chain: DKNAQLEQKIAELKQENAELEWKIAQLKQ

4H3631-bA = target: T11, 4H3631-bA
T11 chain: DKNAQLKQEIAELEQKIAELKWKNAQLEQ

4H3638-bA = target: T12, 4H3638-bA
T12 chain: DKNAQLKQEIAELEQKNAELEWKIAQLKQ

4H3817-bA = target: T13, 4H3817-bA
T13 chain: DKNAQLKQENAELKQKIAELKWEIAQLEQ

4H3974-bA = target: T14, 4H3974-bA
T14 chain: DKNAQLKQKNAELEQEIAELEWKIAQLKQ

4H570-bA = target: T15, 4H570-bA
T15 chain: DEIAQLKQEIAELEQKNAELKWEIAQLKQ

4H584-bA = target: T16, 4H584-bA
T16 chain: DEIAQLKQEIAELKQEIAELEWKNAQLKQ

4H619-bA = target: T17, 4H619-bA
T17 chain: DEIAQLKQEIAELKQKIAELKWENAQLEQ

4H754-bA = target: T18, 4H754-bA
T18 chain: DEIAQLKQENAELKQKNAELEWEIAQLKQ

4H850-bA = target: T19, 4H850-bA
T19 chain: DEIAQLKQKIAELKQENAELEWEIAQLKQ

4H906-bA = target: T20, 4H906-bA
T20 chain: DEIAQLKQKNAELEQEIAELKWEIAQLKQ

4H2143-bH = target: T21, 4H2143-bH
T21 chain: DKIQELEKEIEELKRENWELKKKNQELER

4H2162-bH = target: T22, 4H2162-bH
T22 chain: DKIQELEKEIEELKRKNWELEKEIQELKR

4H2223-bH = target: T23, 4H2223-bH
T23 chain: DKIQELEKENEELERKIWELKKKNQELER

4H2233-bH = target: T24, 4H2233-bH
T24 chain: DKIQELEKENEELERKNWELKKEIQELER

4H2253-bH = target: T25, 4H2253-bH
T25 chain: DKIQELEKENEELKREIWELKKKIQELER

4H235-bH = target: T26, 4H235-bH
T26 chain: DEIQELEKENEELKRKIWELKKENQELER

4H2438-bH = target: T27, 4H2438-bH
T27 chain: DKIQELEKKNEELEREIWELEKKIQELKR

4H2444-bH = target: T28, 4H2444-bH
T28 chain: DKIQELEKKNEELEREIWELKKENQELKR

4H2473-bH = target: T29, 4H2473-bH
T29 chain: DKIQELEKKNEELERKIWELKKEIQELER

4H2503-bH = target: T30, 4H2503-bH
T30 chain: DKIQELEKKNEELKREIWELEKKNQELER

4H2518-bH = target: T31, 4H2518-bH
T31 chain: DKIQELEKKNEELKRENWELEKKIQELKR

4H2585-bH = target: T32, 4H2585-bH
T32 chain: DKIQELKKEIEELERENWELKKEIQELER

4H2588-bH = target: T33, 4H2588-bH
T33 chain: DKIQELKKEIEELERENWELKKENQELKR

4H264-bH = target: T34, 4H264-bH
T34 chain: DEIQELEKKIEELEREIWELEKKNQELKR

4H2692-bH = target: T35, 4H2692-bH
T35 chain: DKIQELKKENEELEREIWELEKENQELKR

4H2717-bH = target: T36, 4H2717-bH
T36 chain: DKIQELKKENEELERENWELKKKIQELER

4H2760-bH = target: T37, 4H2760-bH
T37 chain: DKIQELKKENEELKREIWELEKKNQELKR

4H2839-bH = target: T38, 4H2839-bH
T38 chain: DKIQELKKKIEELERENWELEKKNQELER

4H2859-bH = target: T39, 4H2859-bH
T39 chain: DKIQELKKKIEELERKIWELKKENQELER

4H2915-bH = target: T40, 4H2915-bH
T40 chain: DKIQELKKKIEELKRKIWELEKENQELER

4H2931-bH = target: T41, 4H2931-bH
T41 chain: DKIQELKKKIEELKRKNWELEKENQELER

4H3041-bH = target: T42, 4H3041-bH
T42 chain: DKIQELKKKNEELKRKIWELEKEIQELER

4H3057-bH = target: T43, 4H3057-bH
T43 chain: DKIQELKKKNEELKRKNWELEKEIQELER

4H319-bH = target: T44, 4H319-bH
T44 chain: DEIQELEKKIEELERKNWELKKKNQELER

4H3277-bH = target: T45, 4H3277-bH
T45 chain: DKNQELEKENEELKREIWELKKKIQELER

4H3364-bH = target: T46, 4H3364-bH
T46 chain: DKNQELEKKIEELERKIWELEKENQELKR

4H3381-bH = target: T47, 4H3381-bH
T47 chain: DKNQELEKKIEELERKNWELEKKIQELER

4H348-bH = target: T48, 4H348-bH
T48 chain: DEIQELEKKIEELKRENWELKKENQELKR

4H349-bH = target: T49, 4H349-bH
T49 chain: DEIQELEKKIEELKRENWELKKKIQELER

4H40-bH = target: T50, 4H40-bH
T50 chain: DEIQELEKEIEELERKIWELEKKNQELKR

4H4001-bN = target: T51, 4H4001-bN
T51 chain: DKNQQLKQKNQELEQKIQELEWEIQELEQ

4H477-bH = target: T52, 4H477-bH
T52 chain: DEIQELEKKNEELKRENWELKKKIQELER

4H492-bH = target: T53, 4H492-bH
T53 chain: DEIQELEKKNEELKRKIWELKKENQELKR

4H56-bH = target: T54, 4H56-bH
T54 chain: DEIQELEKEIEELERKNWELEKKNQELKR

4H730-bH = target: T55, 4H730-bH
T55 chain: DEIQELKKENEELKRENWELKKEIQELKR

4H741-bH = target: T56, 4H741-bH
T56 chain: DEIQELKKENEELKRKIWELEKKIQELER

4H796-bH = target: T57, 4H796-bH
T57 chain: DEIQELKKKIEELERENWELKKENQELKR

4H932-bH = target: T58, 4H932-bH
T58 chain: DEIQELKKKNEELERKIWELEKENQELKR

4H949-bH = target: T59, 4H949-bH
T59 chain: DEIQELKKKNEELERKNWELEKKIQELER

interaction score (4H1393-bA): -1.08
interaction score (4H1449-bA): -1.31
interaction score (4H1629-bA): -1.57
interaction score (4H1710-bA): -1.72
interaction score (4H1804-bA): -1.14
interaction score (4H1985-bA): -1.7
interaction score (4H3129-bA): -0.0989
interaction score (4H3172-bA): -1.3
interaction score (4H3297-bH): -0.857
interaction score (4H3414-bA): 0.166
interaction score (4H3631-bA): -0.847
interaction score (4H3638-bA): 1.8
interaction score (4H3817-bA): -1.23
interaction score (4H3974-bA): -0.626
interaction score (4H570-bA): -0.941
interaction score (4H584-bA): -1.22
interaction score (4H619-bA): -1.63
interaction score (4H754-bA): -1.58
interaction score (4H850-bA): -0.951
interaction score (4H906-bA): -1.12
Binder: DENAQLEQKIAELKQKNAELEWEIAQLEQ [4H1393-bA]

interaction score (4H2143-bH): 0.693
interaction score (4H2162-bH): 0.12
interaction score (4H2223-bH): -0.434
interaction score (4H2233-bH): 0.334
interaction score (4H2253-bH): -1.13
interaction score (4H235-bH): -0.618
interaction score (4H2438-bH): -0.916
interaction score (4H2444-bH): -0.824
interaction score (4H2473-bH): -0.279
interaction score (4H2503-bH): -1.13
interaction score (4H2518-bH): 0.15
interaction score (4H2585-bH): -1.12
interaction score (4H2588-bH): -0.874
interaction score (4H264-bH): 0.605
interaction score (4H2692-bH): -0.348
interaction score (4H2717-bH): -0.549
interaction score (4H2760-bH): -0.0706
interaction score (4H2839-bH): 1.24
interaction score (4H2859-bH): -0.954
interaction score (4H2915-bH): -0.577
interaction score (4H2931-bH): 0.0986
interaction score (4H3041-bH): -0.203
interaction score (4H3057-bH): 0.0434
interaction score (4H319-bH): -1.46
interaction score (4H3277-bH): -0.719
interaction score (4H3297-bH): -0.15
interaction score (4H3364-bH): 0.347
interaction score (4H3381-bH): 0.106
interaction score (4H348-bH): 0.059
interaction score (4H349-bH): -0.148
interaction score (4H40-bH): 1
interaction score (4H4001-bN): -1.45
interaction score (4H477-bH): -0.0383
interaction score (4H492-bH): -0.638
interaction score (4H56-bH): 0.127
interaction score (4H730-bH): -0.835
interaction score (4H741-bH): 0.515
interaction score (4H754-bA): -0.871
interaction score (4H796-bH): -1.45
interaction score (4H932-bH): -0.164
interaction score (4H949-bH): -0.954
Binder: DKIQELEKEIEELKRENWELKKKNQELER [4H2143-bH]
